Assay results published in PMC3621209, “Biochemical properties of a novel thermostable and highly xylose-tolerant β-xylosidase/α-arabinosidase from Thermotoga thermarum” (Biotechnology for Biofuels, 2013).
Values belong to the molecule of their own block, whether it stands above or below them.

What was measured:
[1] = target: Tth xynB3 β-xylosidase from Thermotoga thermarum DSM 5069 (Thermotoga thermarum DSM 5069); assay: SEC; Superdex 200 10/30 GL column on an ÄKTA FPLC system; MW calculated from the calibration curve of the gel filtration column; oligomerization state of the purified native protein
[2] = substrate: O=[N+]([O-])c1ccc(O[C@@H]2O[C@@H](CO)[C@H](O)[C@H]2O)cc1; assay: purified protein; format: biochemical, Pseudothermotoga thermarum; conditions: 50 mM imidazole-potassium buffer pH 6.0, 85°C (standard conditions; text says optimal conditions)
[3] = substrate: O=[N+]([O-])c1ccc(O[C@@H]2OC[C@@H](O)[C@H](O)[C@H]2O)cc1; assay: purified protein; format: biochemical, Pseudothermotoga thermarum; conditions: 50 mM imidazole-potassium buffer pH 6.0, 85°C (standard conditions; text says optimal conditions)

stoichiometry N [1]: 5
Molecule: Tth xynB3 β-xylosidase from Thermotoga thermarum DSM 5069 (enzyme)

B1: Tth xynB3 β-xylosidase (Pseudothermotoga thermarum DSM 5069) (protein)
chain: MDLYKNPNVPAKVRAKDLLSKMTLEEKIAQLGSVWSYELLTEDGKFSVEKAKEILKHGIGQITRPGGATNFEPPEVAKLVNEIQKFLVENTRLGIPAIMHEECLAGYMGLGATIFPQPIGMASTWDPELVEKITSAIREDLRKLGITQGLAPVLDVARDPRWGRTEETFGESPYLVAKMGVAYVKGLQGSDITKGVVATGKHFAGYSASEGGKNWAPTNIPPRELREVFLYPFEAAVKEAGLLSIMNSYSEIDGIPCASNRELLTDILRRTWGFEGIVVSDYFAVDMLAAYHRMAKNKAEAAKYALEAGIDIELPKTDCYLHLKSLVENGIISEKLLDEAVLRVLTLKFLLGLFENPYAEGGSLNDHNDIALEASRKSIVLLKNNGILPLKNDVKIALVGPTANDVRNLLGDYSYLVHIKTLLENVNATTFNAPKFNLKKVEELVEAHLKKIPSILAEFAKRAKEIYYAKGCDITDPSREGFAEALEAAKKADVVVAVVGDRSGLTIECTSGESRDMANLKLPGVQEEFILELTKVGKPIVVVLVTGRPYSLKAFVNKVNAIVQLWLPGETGAQALAEVIFGQVNPSGKLPISFPASAGQIPVFHYVKPSGGRSCWHGNYVDEDVKPLFPFGHGLSYTTFSYTNLRIEQQEIPIAGSVKLKVDVQNTGEIYGEEVVQLYISREHASVTRPVKELKGFARVKLQPKETKTVVFEIHTDVLAYYDRDMKLVVEPGEYKVLIGSSAEDIRCQGNFKVVGEKRLVQDNRVFFTNTKIE
notes: full length, 774 residues (2,322 bp), pET-20b NdeI/XhoI in E. coli BL21 (DE3), Ni-NTA purified after heat treatment; theoretical monomer 85,129 Da; 5-mer in solution (422,474 Da); primers […]; (N-terminal MDLYKNPNV)
Km [2]: 210 µM | Km [3]: 270 µM
